The target of data set [1] is T1, CtTrl1-LIG WT (Chaetomium thermophilum, UniProt G0S6G2 1-414).
T1 sequence: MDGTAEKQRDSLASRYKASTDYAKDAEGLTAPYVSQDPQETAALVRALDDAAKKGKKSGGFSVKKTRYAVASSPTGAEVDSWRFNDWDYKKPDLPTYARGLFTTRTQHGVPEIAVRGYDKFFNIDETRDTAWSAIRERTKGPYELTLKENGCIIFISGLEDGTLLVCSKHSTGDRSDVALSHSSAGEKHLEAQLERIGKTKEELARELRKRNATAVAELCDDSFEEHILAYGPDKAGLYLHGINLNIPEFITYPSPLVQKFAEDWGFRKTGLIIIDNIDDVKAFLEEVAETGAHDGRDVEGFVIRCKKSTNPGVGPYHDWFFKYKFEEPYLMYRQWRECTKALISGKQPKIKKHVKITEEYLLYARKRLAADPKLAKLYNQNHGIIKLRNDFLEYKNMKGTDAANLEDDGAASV
In words: EMSA. For orientation: A gel shift assay detects complexes by their altered migration in electrophoresis.

For another data set, the target named is T2, CtTrl1-LIG S171A (Chaetomium thermophilum, UniProt G0S6G2 1-414, S171A).
T2 sequence: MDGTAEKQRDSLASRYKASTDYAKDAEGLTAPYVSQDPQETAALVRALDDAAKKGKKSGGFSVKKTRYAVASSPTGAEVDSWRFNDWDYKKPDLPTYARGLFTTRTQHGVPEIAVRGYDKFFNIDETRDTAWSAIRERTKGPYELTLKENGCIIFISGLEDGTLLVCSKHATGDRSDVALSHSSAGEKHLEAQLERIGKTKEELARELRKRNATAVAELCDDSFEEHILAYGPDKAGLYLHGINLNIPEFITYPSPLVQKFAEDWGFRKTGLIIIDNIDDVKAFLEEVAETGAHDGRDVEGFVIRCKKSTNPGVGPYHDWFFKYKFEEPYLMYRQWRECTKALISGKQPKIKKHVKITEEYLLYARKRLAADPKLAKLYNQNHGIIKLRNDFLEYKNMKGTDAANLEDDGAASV
The data set is described as follows: EMSA.

The target of another data set is T3, CtTrl1-LIG H170A (Chaetomium thermophilum, UniProt G0S6G2 1-414, H170A).
T3 sequence: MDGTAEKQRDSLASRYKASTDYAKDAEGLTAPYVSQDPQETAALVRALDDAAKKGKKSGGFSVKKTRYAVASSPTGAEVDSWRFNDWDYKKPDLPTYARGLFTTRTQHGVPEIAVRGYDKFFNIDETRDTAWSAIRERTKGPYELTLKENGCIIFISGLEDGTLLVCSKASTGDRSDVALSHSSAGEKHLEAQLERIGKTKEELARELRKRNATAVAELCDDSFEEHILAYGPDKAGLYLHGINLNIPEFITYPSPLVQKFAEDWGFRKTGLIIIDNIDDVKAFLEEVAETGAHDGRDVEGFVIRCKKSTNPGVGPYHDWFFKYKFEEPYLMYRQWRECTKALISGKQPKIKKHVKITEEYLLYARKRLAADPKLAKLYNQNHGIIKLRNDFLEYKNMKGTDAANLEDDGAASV
The data set is described as follows: EMSA.

The next data set addresses T4, CtTrl1-LIG K148N (Chaetomium thermophilum, UniProt G0S6G2 1-414, K148N).
T4 sequence: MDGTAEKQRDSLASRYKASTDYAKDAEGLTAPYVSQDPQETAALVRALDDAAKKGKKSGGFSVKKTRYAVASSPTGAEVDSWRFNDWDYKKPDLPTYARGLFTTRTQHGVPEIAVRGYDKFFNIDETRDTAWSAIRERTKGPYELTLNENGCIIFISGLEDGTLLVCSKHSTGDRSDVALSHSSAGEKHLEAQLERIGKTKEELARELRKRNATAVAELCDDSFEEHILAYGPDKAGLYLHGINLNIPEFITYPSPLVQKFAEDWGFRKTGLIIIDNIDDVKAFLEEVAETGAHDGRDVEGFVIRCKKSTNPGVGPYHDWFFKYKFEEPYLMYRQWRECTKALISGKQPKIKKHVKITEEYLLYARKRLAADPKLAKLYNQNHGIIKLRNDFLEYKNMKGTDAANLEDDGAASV
In words: EMSA.

Data set [2] concerns the target T1, CtTrl1-LIG WT. In words: EMSA. The source holds these as a separate data set.
For data set [3], the target named is T1, CtTrl1-LIG WT. The data set is described as follows: X-ray crystallography.

For AUCUGGAUUUUGCCAGACUGAAG (structured_RNA, 5'-phosphate; terminal phosphate at 3' end nucleotide (2'-P/3'-OH)) [ASL-4U], the binding result with CtTrl1-LIG WT [1], with CtTrl1-LIG S171A, in the data set with CtTrl1-LIG H170A and in the data set with CtTrl1-LIG K148N was “binds” throughout.

On to CUCUGGAUUUUGCCAGACUGAAG (structured_RNA, 5'-phosphate and terminal phosphate presumed as in ASL-4U) [ASL-4U-5C], for which the binding result with CtTrl1-LIG WT [2] is on record as “binds”.

B1: 3'exon-7nt (dsRNA)
RNA 1: AUCUGGA
RNA 2: AUCUGGA
modifications: 5'-phosphate; one strand end 5'-adenylylated (AppRNA) in the crystal
For the molecule B1, in the data set with CtTrl1-LIG WT [3], the binding result is listed as “binds”.
